Measured values: patent US20030166868A1 (Genentech, published 2003)

T1: FcγRIIa α subunit ECD-6His-GST fusion protein (UniProt P12318 34-217)
T1 construct: Expressed in 293 cells; not shown: glutathione S transferase (GST)
T1 sequence: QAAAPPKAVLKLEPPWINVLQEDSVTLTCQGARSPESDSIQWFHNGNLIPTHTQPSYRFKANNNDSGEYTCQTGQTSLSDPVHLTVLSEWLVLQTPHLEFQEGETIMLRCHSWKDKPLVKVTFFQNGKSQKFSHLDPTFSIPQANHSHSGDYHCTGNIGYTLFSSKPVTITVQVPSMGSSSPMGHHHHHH

T2: FcγRIIb α subunit ECD-6His-GST fusion protein (UniProt P31994 43-217)
T2 construct: Expressed in 293 cells; also called FcγRIlb; not shown: glutathione S transferase (GST)
T2 sequence: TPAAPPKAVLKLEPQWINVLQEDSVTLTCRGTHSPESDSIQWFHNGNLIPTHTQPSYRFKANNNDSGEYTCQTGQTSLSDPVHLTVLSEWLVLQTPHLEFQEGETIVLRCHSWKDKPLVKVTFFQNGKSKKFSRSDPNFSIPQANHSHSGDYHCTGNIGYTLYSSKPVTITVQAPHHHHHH

B1: E27 anti-IgE antibody, wild type (humanized IgG1) (antibody)
heavy: not shown
light: DIQLTQSPSSLSASVGDRVTITCRASKPVDGEGDSYMNWYQQKPGKAPKLLIYAASYLESGVPSRFSGSGSGTDFTLTISSLQPEDFATYYCQQSHEDPYTFGQGTKVEIKRTVAAPSVFIFPPSDEQLKSGTASVVCLLNNFYPREAKVQWKVDNALQSGNSQESVTEQDSKDSTYSLSSTLTLSKADYEKHKVYACEVTHQGLSSPVTKSFNRGEC
notes: In the FcγRIIa, FcγRIIb and FcγRIIIa ELISAs it stood as an immune complex E27:chimeric IgE:VEGF (1:1:2); in the FcγRI ELISA as monomeric IgG; also called recombinant anti-IgE E27; wt
B2: E27 anti-IgE antibody mutant P329A (antibody)
heavy: not shown
light: B1 light
notes: also called P329A (E27 background)
B3: E27 anti-IgE antibody mutant E318A (antibody)
heavy: not shown
light: B1 light
notes: also called E318A (E27 background)
B4: E27 anti-IgE antibody mutant K322A (antibody)
heavy: not shown
light: B1 light
notes: also called K322A (E27 background)
B5: E27 anti-IgE antibody mutant P331A (antibody)
heavy: not shown
light: B1 light
notes: also called P331A (E27 background)
B6: E27 anti-IgE antibody mutant K320A (antibody)
heavy: not shown
light: B1 light
notes: also called K320A (E27 background)

biological target: T3, FcγRI α subunit-GST fusion (UniProt P12314 16-292); experiment: ELISA, monomeric IgG at 10 ug/ml on plate-coated FcγRI α subunit-GST fusion
T3 construct: ECD-6His-GST fusion expressed in 293 cells; not shown: glutathione S transferase (GST)
T3 sequence (P12314 other isoform, or with tags, fused parts or gaps, form in doubt): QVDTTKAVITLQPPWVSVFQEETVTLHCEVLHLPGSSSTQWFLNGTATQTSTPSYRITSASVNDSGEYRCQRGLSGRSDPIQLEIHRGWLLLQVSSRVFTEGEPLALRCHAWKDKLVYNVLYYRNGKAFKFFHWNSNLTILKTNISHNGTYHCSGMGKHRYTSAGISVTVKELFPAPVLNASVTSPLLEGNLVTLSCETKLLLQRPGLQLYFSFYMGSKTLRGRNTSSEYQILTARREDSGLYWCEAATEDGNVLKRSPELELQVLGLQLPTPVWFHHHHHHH

| binding as a percentage of the wild type | Binder |
| --- | --- |
| 100 % of wild type | B1 |
| 104 % of wild type | B2 |
| 93 % of wild type | B3 |
| 90 % of wild type | B4 |
| 74 % of wild type | B5 |
| 102 % of wild type | B6 |

biological target: T1, FcγRIIa α subunit ECD-6His-GST fusion …; experiment: ELISA, E27:chimeric IgE:VEGF (1:1:2) immune complex on plate-coated receptor ECD-6His-GST

| binding as a percentage of the wild type | Binder |
| --- | --- |
| 100 % of wild type | B1 |
| 111 % of wild type | B2 |
| 113 % of wild type | B3 |
| 109 % of wild type | B4 |
| 86 % of wild type | B5 |
| 94 % of wild type | B6 |

biological target: T2, FcγRIIb α subunit ECD-6His-GST fusion …; experiment: as above

| binding as a percentage of the wild type | Binder |
| --- | --- |
| 100 % of wild type | B1 |
| 96 % of wild type | B2 |
| 106 % of wild type | B3 |
| 101 % of wild type | B4 |
| 58 % of wild type | B5 |
| 83 % of wild type | B6 |

biological target: T4, FcγRIIIa α subunit ECD-6His-GST fusion protein (UniProt P08637 17-208); experiment: as above
T4 construct: Expressed in 293 cells; also called FcγIII; FcγIIIa; not shown: glutathione S transferase (GST)
T4 sequence (P08637 other isoform, or with tags, fused parts or gaps, form in doubt): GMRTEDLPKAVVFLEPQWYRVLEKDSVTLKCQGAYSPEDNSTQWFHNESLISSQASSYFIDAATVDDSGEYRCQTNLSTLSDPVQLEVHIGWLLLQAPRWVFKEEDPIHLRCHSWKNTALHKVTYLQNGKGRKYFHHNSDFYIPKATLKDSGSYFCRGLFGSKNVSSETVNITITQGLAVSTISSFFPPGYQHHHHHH

| binding as a percentage of the wild type | Binder |
| --- | --- |
| 100 % of wild type | B1 |
| 85 % of wild type | B2 |
| 104 % of wild type | B3 |
| 90 % of wild type | B4 |
| 73 % of wild type | B5 |
| 72 % of wild type | B6 |
